Measurements from paper PMC9482650, “Quantitative fragmentomics allow affinity mapping of interactomes” (Nature Communications, 2022).

T1: ARHGAP21, Q5T5U3
T1 sequence (Q5T5U3 45-169, limits assumed, looked up): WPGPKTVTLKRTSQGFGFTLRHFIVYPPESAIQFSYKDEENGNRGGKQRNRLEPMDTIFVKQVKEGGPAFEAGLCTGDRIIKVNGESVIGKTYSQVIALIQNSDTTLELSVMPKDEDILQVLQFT

T2: GRIP1_5, Q9Y3R0
T2 sequence (Q9Y3R0 568-668, limits assumed, looked up): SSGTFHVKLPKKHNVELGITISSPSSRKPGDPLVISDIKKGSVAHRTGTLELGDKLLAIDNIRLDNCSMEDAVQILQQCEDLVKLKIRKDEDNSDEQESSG

T3: PCLO, Q9Y6V0
T3 sequence (Q9Y6V0 4491-4600, limits assumed, looked up): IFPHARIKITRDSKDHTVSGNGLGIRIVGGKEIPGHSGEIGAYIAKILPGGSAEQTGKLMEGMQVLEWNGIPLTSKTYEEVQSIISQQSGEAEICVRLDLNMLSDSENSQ

T4: PDZRN3_1, Q9UPQ7
T4 sequence (Q9UPQ7 244-349, limits assumed, looked up): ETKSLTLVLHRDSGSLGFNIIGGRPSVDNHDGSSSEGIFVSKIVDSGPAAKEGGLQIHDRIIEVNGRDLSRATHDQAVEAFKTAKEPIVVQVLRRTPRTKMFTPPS

T5: SYNJ2BP, P57105
T5 sequence (P57105 8-110, limits assumed, looked up): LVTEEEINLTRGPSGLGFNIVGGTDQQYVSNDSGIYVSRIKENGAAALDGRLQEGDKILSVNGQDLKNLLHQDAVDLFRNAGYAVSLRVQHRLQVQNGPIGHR

T6: MPP7, Q5T2T1
T6 sequence (Q5T2T1 134-230, limits assumed, looked up): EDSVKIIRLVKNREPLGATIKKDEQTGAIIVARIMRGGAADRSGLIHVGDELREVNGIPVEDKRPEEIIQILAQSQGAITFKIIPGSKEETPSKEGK

T7: PTPN13_1, Q12923
T7 sequence (Q12923 1088-1188, limits assumed, looked up): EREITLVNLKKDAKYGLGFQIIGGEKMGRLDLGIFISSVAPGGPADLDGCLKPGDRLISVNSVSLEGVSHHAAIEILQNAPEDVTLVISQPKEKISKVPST

T8: MPP6, Q9NZW5
T8 sequence (Q9NZW5 125-219, limits assumed, looked up): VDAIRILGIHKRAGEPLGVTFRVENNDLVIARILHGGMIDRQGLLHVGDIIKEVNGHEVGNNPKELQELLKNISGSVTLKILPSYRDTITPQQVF

T9: GRIP1_7, Q9Y3R0
T9 sequence (Q9Y3R0 999-1096, limits assumed, looked up): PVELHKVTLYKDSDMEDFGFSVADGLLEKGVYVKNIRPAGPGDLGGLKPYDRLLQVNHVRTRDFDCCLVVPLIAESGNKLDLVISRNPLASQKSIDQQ

T10: LIN7A, O14910
T10 sequence (O14910 103-200, limits assumed, looked up): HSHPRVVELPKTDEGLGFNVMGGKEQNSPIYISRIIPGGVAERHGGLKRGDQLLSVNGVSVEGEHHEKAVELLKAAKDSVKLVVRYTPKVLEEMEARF

T11: FRMPD1, Q5SYB0
T11 sequence (Q5SYB0 52-145, limits assumed, looked up): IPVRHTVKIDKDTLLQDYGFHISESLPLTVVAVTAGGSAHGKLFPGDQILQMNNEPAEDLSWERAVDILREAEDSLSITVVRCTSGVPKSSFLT


Tests used:
Test in all cases: holdup assay
Set-up in all cases: key: below the threshold = too weak to quantify, mostly under pKd 3.1 to 4
Conditions in all cases: plain residues with an end cap or a label only (N-terminal biotin on a linker: ado-ado)
[1] = target: FRMPD4, Q14CM0
[2] = target: T1, ARHGAP21, Q5T5U3
[3] = target: T2, GRIP1_5, Q9Y3R0
[4] = target: GRASP, Q7Z6J2
[5] = target: GRIP2_6, Q9C0E4
[6] = target: MAGI1_2, Q96QZ7
[7] = target: DLG4_1, P78352
[8] = target: SCRIB_2, Q14160
[9] = target: T3, PCLO, Q9Y6V0
[10] = target: HTRA1, Q92743
[11] = target: MAST2, Q6P0Q8
[12] = target: Inadl_3, Q8NI35
[13] = target: MAGI2_3, Q86UL8
[14] = target: T4, PDZRN3_1, Q9UPQ7
[15] = target: Inadl_4, Q8NI35
[16] = target: T5, SYNJ2BP, P57105
[17] = target: T6, MPP7, Q5T2T1
[18] = target: T7, PTPN13_1, Q12923
[19] = target: NHERF4_2, Q86UT5
[20] = target: MAGI1_1, Q96QZ7
[21] = target: T8, MPP6, Q9NZW5
[22] = target: T9, GRIP1_7, Q9Y3R0
[23] = target: GRID2IP_1, A4D2P6
[24] = target: T10, LIN7A, O14910
[25] = target: MAGI2_5, Q86UL8
[26] = target: GRIP2_3, Q9C0E4
[27] = target: T11, FRMPD1, Q5SYB0

Inadl_3, Q8NI35, sequence (Q8NI35 359-469): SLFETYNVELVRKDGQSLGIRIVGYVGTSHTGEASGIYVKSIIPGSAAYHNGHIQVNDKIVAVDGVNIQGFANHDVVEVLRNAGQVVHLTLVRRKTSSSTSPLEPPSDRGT
GRASP, Q7Z6J2, sequence (Q7Z6J2 96-193): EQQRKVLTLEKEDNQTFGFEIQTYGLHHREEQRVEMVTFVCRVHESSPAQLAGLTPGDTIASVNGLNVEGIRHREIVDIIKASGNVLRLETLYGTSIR
MAST2, Q6P0Q8, sequence (Q6P0Q8 1099-1202): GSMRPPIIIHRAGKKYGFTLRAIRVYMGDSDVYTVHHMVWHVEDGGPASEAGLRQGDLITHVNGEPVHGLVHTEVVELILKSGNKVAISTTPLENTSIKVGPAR
MAGI1_2, Q96QZ7, sequence (Q96QZ7 456-580): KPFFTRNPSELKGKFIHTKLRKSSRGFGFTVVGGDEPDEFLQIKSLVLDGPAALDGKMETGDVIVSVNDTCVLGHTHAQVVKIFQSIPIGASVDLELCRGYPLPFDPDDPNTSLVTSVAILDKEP
Inadl_4, Q8NI35, sequence (Q8NI35 547-651): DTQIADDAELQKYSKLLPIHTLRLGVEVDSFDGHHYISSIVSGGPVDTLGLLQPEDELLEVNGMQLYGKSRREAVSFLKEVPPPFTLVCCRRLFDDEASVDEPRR
GRID2IP_1, A4D2P6, sequence (A4D2P6 1-87): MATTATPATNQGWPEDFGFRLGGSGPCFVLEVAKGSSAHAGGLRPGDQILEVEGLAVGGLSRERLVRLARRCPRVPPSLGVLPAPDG
NHERF4_2, Q86UT5, sequence (Q86UT5 220-308): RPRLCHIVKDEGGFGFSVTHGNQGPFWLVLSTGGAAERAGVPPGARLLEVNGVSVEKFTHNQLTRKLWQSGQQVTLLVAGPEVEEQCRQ
GRIP2_6, Q9C0E4, sequence (Q9C0E4 648-740): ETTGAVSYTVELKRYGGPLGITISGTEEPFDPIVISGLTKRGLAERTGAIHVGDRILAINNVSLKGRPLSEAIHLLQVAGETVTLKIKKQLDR
MAGI1_1, Q96QZ7, sequence (Q96QZ7 1-106): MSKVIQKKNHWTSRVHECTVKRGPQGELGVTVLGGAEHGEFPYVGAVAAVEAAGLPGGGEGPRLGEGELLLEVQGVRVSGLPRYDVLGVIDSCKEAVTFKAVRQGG
FRMPD4, Q14CM0, sequence (Q14CM0 67-160): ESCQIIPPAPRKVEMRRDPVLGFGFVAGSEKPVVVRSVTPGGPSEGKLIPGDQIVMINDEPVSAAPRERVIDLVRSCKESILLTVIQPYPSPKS
GRIP2_3, Q9C0E4, sequence (Q9C0E4 238-339): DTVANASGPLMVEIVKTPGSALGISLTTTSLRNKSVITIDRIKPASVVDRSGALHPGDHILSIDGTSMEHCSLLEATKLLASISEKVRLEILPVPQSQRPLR
MAGI2_3, Q86UL8, sequence (Q86UL8 600-682): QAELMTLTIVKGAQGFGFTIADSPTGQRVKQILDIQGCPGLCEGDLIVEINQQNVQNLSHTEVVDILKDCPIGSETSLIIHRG
DLG4_1, P78352, sequence (P78352 62-152): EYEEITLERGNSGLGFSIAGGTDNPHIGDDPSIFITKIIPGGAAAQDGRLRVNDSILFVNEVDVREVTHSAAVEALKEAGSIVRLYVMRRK
SCRIB_2, Q14160, sequence (Q14160 857-960): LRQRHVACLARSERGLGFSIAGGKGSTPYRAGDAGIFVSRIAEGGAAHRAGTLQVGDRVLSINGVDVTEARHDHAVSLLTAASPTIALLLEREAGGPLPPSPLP
MAGI2_5, Q86UL8, sequence (Q86UL8 915-1017): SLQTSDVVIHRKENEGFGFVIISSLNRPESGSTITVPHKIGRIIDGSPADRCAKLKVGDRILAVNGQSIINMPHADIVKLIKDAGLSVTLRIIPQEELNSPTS
HTRA1, Q92743, sequence (Q92743 360-477): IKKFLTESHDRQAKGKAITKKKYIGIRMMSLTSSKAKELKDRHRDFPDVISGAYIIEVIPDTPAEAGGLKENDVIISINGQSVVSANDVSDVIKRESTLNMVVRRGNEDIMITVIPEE

Row | pKd [1] | pKd [2] | pKd [3] | pKd [4] | pKd [5] | pKd [6] | pKd [7] | pKd [8] | pKd [9] | pKd [10] | pKd [11] | pKd [12] | pKd [13] | pKd [14] | pKd [15] | pKd [16] | pKd [17] | pKd [18] | pKd [19] | pKd [20] | Binder | further results
1 | below the threshold | 3.89 | below the threshold | below the threshold | below the threshold | below the threshold | below the threshold | below the threshold | below the threshold | 4.18 | 4.3 | 3.6 | below the threshold | below the threshold | below the threshold | below the threshold | below the threshold | below the threshold | below the threshold | below the threshold | LKVPPEERLI [CRB2, Q5IJ48] | pKd [21]: 3.68; pKd [22]: below the threshold; pKd [23]: below the threshold; pKd [24]: below the threshold; pKd [25]: below the threshold; pKd [26]: below the threshold; pKd [27]: below the threshold
2 | below the threshold | below the threshold | below the threshold | below the threshold | below the threshold | below the threshold | below the threshold | below the threshold | below the threshold | below the threshold | 3.59 | below the threshold | below the threshold | below the threshold | below the threshold | below the threshold | below the threshold | below the threshold | below the threshold | below the threshold | SNAGNTATKA [NOSTRIN, Q8IVI9] | pKd [21]: below the threshold; pKd [22]: below the threshold; pKd [23]: below the threshold; pKd [24]: below the threshold; pKd [25]: below the threshold; pKd [26]: below the threshold; pKd [27]: below the threshold
3 | below the threshold | below the threshold | below the threshold | below the threshold | below the threshold | below the threshold | 3.6 | below the threshold | below the threshold | 4.31 | 5.12 | 4.26 | below the threshold | below the threshold | below the threshold | 3.92 | below the threshold | below the threshold | below the threshold | below the threshold | ETQVTAETVI [TMEM225B, P0DP42] | pKd [21]: below the threshold; pKd [22]: below the threshold; pKd [23]: below the threshold; pKd [24]: below the threshold; pKd [25]: below the threshold; pKd [26]: below the threshold; pKd [27]: below the threshold
4 | below the threshold | below the threshold | below the threshold | 4.02 | below the threshold | 5.1 | 5.02 | 3.69 | below the threshold | 4.04 | 5.36 | below the threshold | below the threshold | below the threshold | below the threshold | 4.3 | below the threshold | below the threshold | below the threshold | below the threshold | SGSLKLMTTV [DACT1, Q9NYF0] | pKd [21]: below the threshold; pKd [22]: below the threshold; pKd [23]: below the threshold; pKd [24]: 3.68; pKd [25]: 4.51; pKd [26]: below the threshold; pKd [27]: below the threshold
5 | below the threshold | 4.1 | below the threshold | below the threshold | below the threshold | below the threshold | below the threshold | below the threshold | below the threshold | 3.98 | 4.1 | below the threshold | below the threshold | below the threshold | below the threshold | below the threshold | below the threshold | below the threshold | below the threshold | below the threshold | YRLAQESGLV [ABCC6, O95255] | pKd [21]: 3.74; pKd [22]: below the threshold; pKd [23]: below the threshold; pKd [24]: below the threshold; pKd [25]: 3.61; pKd [26]: below the threshold; pKd [27]: below the threshold
